Test results published in patent US20120301404A1.

Key:
[1] = target: PIF receptor (mouse; C2C12 membranes and mouse tissue plasma membranes) (mouse (C2C12 myotubes)); assay: cell-based or functional assay
[2] = target: PIF receptor (pig sarcolemma membranes) (pig); assay: Scatchard analysis of [35S]PIF binding to pig sarcolemma membranes, first site
[3] = target: PIF receptor (pig sarcolemma membranes) (pig); assay: Scatchard analysis of [35S]PIF binding to pig sarcolemma membranes, second site
[4] = target: PIF receptor (mouse; C2C12 membranes and mouse tissue plasma membranes) (mouse (C2C12 myotubes)); assay: Scatchard analysis of [35S]PIF binding to mouse heart plasma membranes, first site
[5] = target: PIF receptor (mouse; C2C12 membranes and mouse tissue plasma membranes) (mouse (C2C12 myotubes)); assay: Scatchard analysis of [35S]PIF binding to mouse liver plasma membranes, first site
[6] = target: PIF receptor (mouse; C2C12 membranes and mouse tissue plasma membranes) (mouse (C2C12 myotubes)); assay: Scatchard analysis of [35S]PIF binding to mouse heart plasma membranes, second site
[7] = target: PIF receptor (mouse; C2C12 membranes and mouse tissue plasma membranes) (mouse (C2C12 myotubes)); assay: Scatchard analysis of [35S]PIF binding to mouse liver plasma membranes, second site
[8] = target: PIF receptor (human muscle cell line Hs94MU membranes) (human); assay: Scatchard analysis of [35S]PIF binding to Hs94MU human muscle cell membranes, first site
[9] = target: PIF receptor (human muscle cell line Hs94MU membranes) (human); assay: Scatchard analysis of [35S]PIF binding to Hs94MU human muscle cell membranes, second site
[10] = target: PIF receptor (mouse; C2C12 membranes and mouse tissue plasma membranes) (mouse (C2C12 myotubes)); assay: Scatchard analysis of [35S]PIF binding to mouse soleus muscle plasma membranes, first site
[11] = target: PIF receptor (mouse; C2C12 membranes and mouse tissue plasma membranes) (mouse (C2C12 myotubes)); assay: Scatchard analysis of [35S]PIF binding to mouse soleus muscle plasma membranes, second site
[12] = target: PIF receptor (mouse; C2C12 membranes and mouse tissue plasma membranes) (mouse (C2C12 myotubes)); assay: Scatchard analysis of [35S]PIF binding to mouse gastrocnemius muscle sarcolemma membranes, first site
[13] = target: PIF receptor (mouse; C2C12 membranes and mouse tissue plasma membranes) (mouse (C2C12 myotubes)); assay: Scatchard analysis of [35S]PIF binding to C2C12 membranes, second site (column headed Kaff2 x 10^-9 M)
[14] = target: PIF receptor (mouse; C2C12 membranes and mouse tissue plasma membranes) (mouse (C2C12 myotubes)); assay: Scatchard analysis of [35S]PIF binding to mouse gastrocnemius muscle sarcolemma membranes, second site
[15] = target: PIF receptor (mouse; C2C12 membranes and mouse tissue plasma membranes) (mouse (C2C12 myotubes)); assay: comparison of the affinity of PIF for muscle cell binding sites with its affinity for the MAC16 monoclonal antibody
[16] = target: PIF receptor (mouse; C2C12 membranes and mouse tissue plasma membranes) (mouse (C2C12 myotubes)); assay: Scatchard analysis of [35S]PIF binding to C2C12 membranes, first site (column headed Kaff x 10^-10 M; text calls it Kd)
[17] = target: Proteolysis Inducing Factor (PIF) (mouse (MAC16 cells)); assay: cell-based or functional assay

Row | Molecule | increased rate of protein degradation in C2C12 myoblasts over 24 and 48 h, effective concentrations [1] [nM] | rate of protein degradation (release of L-[2,6-3H]phenylalanine) in C2C12 myoblasts, concentration of maximal effect at 6 h [1] [nM] | Kd [2] [nM] | Kd [3] [nM] | Kd [4] [nM] | Kd [5] [nM] | Kd [6] [nM] | Kd [7] [nM] | Kd [8] [nM] | Kd [9] [nM] | Kd [10] [nM] | Kd [11] [nM] | Kd [12] [nM] | Kd [13] [nM] | Kd [14] [nM] | fold greater affinity than binding to a monoclonal antibody [15] [fold] | Kd [16] [nM] | PIF-induced increase in chymotrypsin-like enzyme activity [17] [µM] | PIF-induced protein degradation in murine myotubes [17] [µM]
1 | Proteolysis Inducing Factor (PIF) (ligand) | 0.14 to 1.4 | 0.98 to 1.4 | 0.47 | 8.2 | 0.3 | 0.69 | 2.3 | 0.2 | 0.11 | 1.7 | 0.01 | 0.12 | 0.52 | 1.2 | 0.1 | 10 to 100 | 0.14 |  | 
2 | DINGGGATLPQPLYQTAAVLTAGFA [N-terminal synthetic peptide of the PIF receptor (peptide of SEQ ID No. 1)] |  |  |  |  |  |  |  |  |  |  |  |  |  |  |  |  |  | 10 | 10
